Measurements from the nanobody polyreactivity screen of Harvey et al. (2022).

test: yeast display, Sf9 membrane polyspecificity reagent, FACS + sequencing; frameworks hold sequencing errors
Outline: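 Sorting gates, low and high (top ~1%), were placed on anti-HA fluorescence to track expression and on streptavidin fluorescence to track reagent binding. A clone's polyreactivity label is taken from the gate it came out of. The reagent was 10% biotinylated, detergent-solubilized Sf9 membrane, applied for 1 hour at 4 °C to galactose-induced yeast display cells.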

Sequence	polyreactivity (PSR sort gate)
QVQLVESGGGLVQAGGSLRLSCAASGIIFVDNVMGWYIQAPGKERELVAAIDYSGGSTYYADSVKGRFTISRDNAKNSVYLQMNSLKPEDTAVYYCAATDPRRRVRYGYWGQGTQVTVSS	low polyreactivity
QVQLEESGGGLVQAGGSLRLSCAASGSTFHINAMGWYRQAPGKEREFVADINWSGGSTYYADSVKVSFTISRDNAKNTVYLQMNSLKPADTAVYYFAADVGVFTYSPYDAGEHDYWGQGTLVTVSS	low polyreactivity
QVQLVESGGGLVQAGGSLRLSCAASGRTFPYYAMGWYRQAPGKERELVAAITRGVRTHYADSVKGRFTISRDNAKYTVYLQMNSLKPEDTAVYYCAREDWGSYSDMDSWGQGTQVTVSS	low polyreactivity
QVKLEESGGGLVQAGGSLRLTCAASGSTFTYYAMGWYRQAPGKERELVAAITFRGDSTYYADSVKGRFTFSRDNAKNTVYLQMNSLKPEDTAVYYWGQGTQVTVSS	low polyreactivity
QFQLVESGGGLVQAGGSLRLSCAASGNILPAYAMGLYRQAPGKERELVAAISKSGGRTYYADSVKGRFTISLDNAKNTVYLQMNSLKPEDTAVYYALLTVLRAVPYTVRYDYWGQGTQVNVSS	high polyreactivity
QVQLVESGGGLVQAGGSLRLSCAASGSIFGAYAMGWYRQAPGPESELVATITLRDGSTYYADSVKGRFTISRDNAKNTVYLQLNSLKPEDTAVYYCATYYSAINYGSSTTILYDYWGQGTQVSVSS	low polyreactivity
QVQLEESGGGLVQAGCSLRLSCAASGSTFVRYAMGWYRQAPGKERELVAAISWSGASTYYADSVKGRFTISRDNAKNTVYLQMNSLKPEDTAVYYCAARSRWYDAAGYQKYYYWGQGSQVTVSS	high polyreactivity
QVQLVESGGGLLQAGGSLRLSCAASGITFYLYAMGWYRQAPGKVRELVAAITKSGASTYYADSVKGRFTISRDNAKNTVYLQMNSLKPEDTAVYYCAAVLQSGYGYEYWGQGTQVTVSS	high polyreactivity
QVQLVESGGGLVQAGGSLRLSCAASGSTFYSYTMGWYRQAPGKERELVASITRGGSTYYADSVKGRFTISRDNAKNTVYLQLNSLKPEDTAVYYCAARGRYSIARYDYWGQGTQVTVSS	high polyreactivity
QVQLVESGGGVVQAGGSLRLSCAASGRIFHYNAMGWYRQAPGKERELVAAISTGGSSNYADSVKGRFTISRDNAKNTVYLQMNSLKPEDTAVYYCAADHPVTYPTSKFDYWGQGTQVTVSS	low polyreactivity
QVQLVESGGGLVQAGGSLRLSCAASGSIFYSNVMGWYRQAPGKERELVASITNGGGTYYADSVKGRFTISRDNAKNTVYLQMNSLKPEDTAVYYCAADPDRTAYDYWGQGTQVTVSS	low polyreactivity
QVQLVESGGGLVQAGGSLRLSCAASGSIFFYYAMGWYRQAPGKERELVADITSGGTTYYADSVKGRFTISRDNAKNTVYLQMNSQKPEDTAVYYCNAGLYPGQRPDYTNYSSYYWGQGTQVTVSS	low polyreactivity
QVQLVESRGGLVQAGGSLRLSCAATGSIFNNYDMGWYRQAPGKERELVADISRGGDTNYADSVKGRFTISRDNAKYTVYLQMTSLNPVDTAVYYCNATYWILDSPWRRETFDYWRQGTQVTVSS	low polyreactivity
QVQLVESGGGLVQAGGSLRLSCAASGSTFRKNAMGWYRQAPGKERELVASISISGGRTNYADSVKGRFTISRDNAKNTVYLQMNSLKPEDTAVYYCAAGYPWYQLPRPLEYYYWGQGTQVTVSS	high polyreactivity
QVQLVESGGGLVQAGGSLRLSCAASGSIFEWYAMGWYRQEPGKERELVADITYNGGSTYYADSVKGRFTISRDNAKNTVYLQMNSLKPEDSAVYYCNKDIERYVSIYDSWGQGTQVTVSS	low polyreactivity
QVQLVESGGGLVQAGGSLRLSCAASGSIFDVYGMGWYRQAPGKERELVARITSAGNTDYADSVKGRFTISRDNAKNTVYLQRNSLKPEDTAVYYCARDYVWFYGDTDFYYYLFDYWGQGTQVTVSS	low polyreactivity
QVQIVETGGGLVQAGGSLGLSCAASGSNFGGNTMPCYRQAPGIERALVAAISRSGGSTYYADSVKGRFTISRDIAQNSVYVQMNSLKPEDTAVYYCNRKQAGQAQGYDYWGLGTQVTVSS	high polyreactivity
QVQLVESGGGLVQAGGSLRLSCAASGRIFWGYAMGWYRQAPGKERELVAAISSGGSTNYADSVKGRFTISRDNAKNTVYLQMNSLKPEDTAVYYCAKDHAYTSAPHQYASEYYYWGQGTQVTVSS	low polyreactivity
QVQLVESGGGLVQAGGSLRLSCAASGRNLQNYAMGWYRQPPGKERELVAAISFSGGRTNYADSVKGRFTISRDNAKNTVYLQMKSLNPEDTAVYYCAKVYRRSGSVSRYDYWGQGTQVTVSS	high polyreactivity
QVQLVESGGGLVQAGGILRISSDSSGSIFTFYAMGCYRQEPGKERELFAAISYGGGITYYADSVKGRFSISRDNAKNTVYLQMNSLKPEDTAVFYCAGDDGYYNLYFDYDYWGQGTQVTVSS	low polyreactivity
QVQRVETGGGLVQARGSLRLSCAASGRIFACYTMGWFRQAPGKERELDAAISWNGGRTYYADSVKGRFTISRDNAKNTVYLQMNSLKPEDTAVYYCAAGKTPQKYGGFNYWGQGTQVTVSS	high polyreactivity
QVQLVESGGGLVQAGGSLRLSCAASGSIFFYNAMGWYRQAPGKERELVAAITTRGGSTYYADSVKGRFTISRDNAKNTVYLQMNSLKPEATAVYYCARSSRGKLVYWGQGTQVTVSS	low polyreactivity

Sequence	polyreactivity (PSR sort gate)
QVQLVESGGGLVQSGGSHPLSCAASGRTFYSYAMRGYRQAPGKDSEFVAAIRRCGSSTYYADSVKGRFTISRDNAKNTVYLQMNSLKPEDTAVYYCNAAPYIYPIRGNYWGQGTQETVSS	high polyreactivity
QVQLVESGGGLVQAGGSLRLSCAASGSTFGYYAMGWYRQAPGKERELVAAITGRGGSTYYADSVKGRFTISRDNAKNTVYLQMNSLKPEDTAVYYCAVGKYRLYYSGAYGYWGQGTQVTVSS	high polyreactivity
QVQLVESGGGLVQAGGSLSLSCAASGSIFYSNSMGWYRQAPGKERELVAAINWRGGSTYYADSVKGRFTISRDNAKNSVYLQMNSLKPEDTAVDYCAAVYPVHLRGQYPIPKYNYWGQGTQVTVSS	low polyreactivity
QVQLVESGGGLVQAGGSLRLSCAASGSTFPAYAMGWYRQAPGKERELVATITYTGGSTYYADSVKGRFTISRDNAKNTVYLQMNSLKPEDTAVYYCAADRLVQEDEFDYWGQGTQVTVSS	low polyreactivity
QVQLVESGGALVQAGGSLRLSCAASGRIFWDYVMGWYRQAPGKEREFVAAISLDGNITYYADSVKGRFTISRDNAKNTVYLQMNSLKPEDTAVFYCAADQYFFFRARGYDYWGQGTQVTVSS	low polyreactivity
QVQLVESGGGLVQAGGSLRLSCAASGSIFDPYAMGWYRQAPGKERELVAAISWSDSSTYYADSVKGRFTISRDNEKNTVYLQMNSLKPEDTAVYYSAAPSRYRYYWGNYWGQGTQVTVSS	high polyreactivity
QVQLVDSGGGLVQEGGSLRLSCAASGRIFWYYDMGWYRQAPGKERELVAAISQRGGSTYYADSVKGRFTISRDNAKNTVYLQMNSLKPEDTAVYYCAKRNPYWATREYWGQGTQVTVSS	high polyreactivity
QVQLLESGGGLVQAGGSLRLSCAASGFTFYRYAMGWYRQAPGKERELVAVISGSGTSTYYADSVKGRFTISRDIAKNTVYLQMNSLKQEDTAVYYCAASQSIFSGHVRYRVDYDSWGQGTQVSVSS	high polyreactivity
QVQLVESGGGLVQAGGSLRLSCAASGRTLQIYVMGWYRQAPGKERELVASITGRGGSTYYADSVKGRFTISRDNAKNTVYLQMNSLKPEDTAVYYCARRYYRLDYWGQGTQVTVSS	high polyreactivity
QVQLVESGGGLVQAGGSLRLSCAASGFIFGDYAMGWYRQAPGKERELVAAITWSGGRTYYADSVKGRFTISRDNAKNTVYLQMNSLKPEDTAVYYCSAVWYTSRQKYDYWGQGTQVTVSS	low polyreactivity
QDQLVESGGGLVQAGGSLRLSCAASGRIFSVNAMGWYRQAPGKERELVAAISRRGTSTFYADSVKGRFTISRDNAKNTVYLQMNSLKPEDTAVYYCAADFYPYQYKFDYWGQGTQVTVSS	high polyreactivity
QVHLVESGGGLVQAGGSLRLSCAASGLILPYYAMGWYRQARGKERELVAAISRTGGRTSYADSVKGRFTISRDNAKNTVYLQMNSLKPEDTAVYYCAAVGQSGGRRYDYWGQGTQVTVSS	high polyreactivity
QVQLVESGGGLVQAGGSLRLSCAASGIIFSRYAMGWYRQAPGKERELDAAISSRGTSTYYADSVKGRFTISRDNAKNTVYLQMNSLKPEDTAVYYCNAVSRPVRHKSTYDYWGQVTQVTVSS	high polyreactivity
QVQLVESGGGLVQAGGSLRLSCAASGRTFDGYMGWYRQAPGKERELVAAISYDTGSTYADSVKGRFTISRDNAKNTVYLQMNSLKPEDTAVYYCYGYPYQTLYGYWGQGTQVTVSS	low polyreactivity
QVQLVESGGGLVQAGGSLRLSSAASGGSFKRYVMVWYRQAPGKERELVAAITWSGGSTYYADSVKGRFTISRDNAKNTVYLQMNSLKPEDTAVYYCNVVTRWVTAAGYDYWGQGTQVTVSS	high polyreactivity
QVQLVESGAGLVQAGGRLRLSCAASGFTFRAYDMGWSRQAPAKERELVAAINISGGSTYYADSVKGRFTISRDNAKNTVYLQMNSLKPVDTAVYYCAAVPWVGTLYPRVGYWGQGTQGTVSS	low polyreactivity
QVQLVESGGGLVQAGGSLRLSCAASGLTFQHYAMGWYRQAPGKERELVASISYSGGGTYADSVKGRFTISRDNAKNTVYLQMNSQKPEDTAVYYCATSLQRQFDYWGQGTQVTVSS	low polyreactivity
QVHLVESGGGLVQAGRSLRFSCAASGSIFGVNTMGWYRQAPGKERELDAGISSSGSSTYYADSVKGRFTISRDNAKNTVYLQMNSLKPEDTAVYDCAVRPRYYSTNMDSWGQGTQVTVSS	low polyreactivity
QVQLVESGGGLVQAGGSLRLSCAASGITFLNYAMGWYRQAPGKERELVAAIDTRGGRTNYADSVKGRFTISRDNAKNTVYLQMNSLKPEDTAVYYCNALGYYVHKMDYWGQGTQVTVSS	low polyreactivity
QVQLVESGGGLVQAGGSLRLSCAASGRTFRIYAMGWYRPATGKEREMVATISGRGGNTYYADSVKGRFTISRDNAKNTVYLQMNSLKPDDTAVYYCNTVYLPNFQWFDYWGQGTQVTVSS	high polyreactivity
QVQLVESGGGLVQAGGSLRLSCAASGSIFRINDMGWSRQAPGKERELVAAITFSGGSTYADSVKGRFTISRDNAKNTVYLQMNSLKPEDTAVYYCNADGAYWTDYYLYDYWGQGTQVTVSS	low polyreactivity
